Data as given in PMC7531523.

Columns and labels:
[1] = molecular target: epOX40.24.2 scFv displayed on yeast (human); assay: flow cytometry on cells
[2] = molecular target: epOX40.24.1 scFv displayed on yeast (human); assay: flow cytometry on cells
[3] = molecular target: rOX40.24.1 scFv displayed on yeast (human); assay: flow cytometry on cells
[4] = molecular target: rOX40.24.2 scFv displayed on yeast (human); assay: flow cytometry on cells
[5] = molecular target: rOX40.24.2 full-length human IgG1 (human); assay: BLI
[6] = molecular target: epOX40.24.1 full-length human IgG1 (human); assay: BLI
[7] = molecular target: epOX40.24.2 full-length human IgG1 (human); assay: BLI

B1: tumor necrosis factor receptor superfamily member 4 (OX40), extracellular, soluble portion (domain or fragment)
chain: LHCVGDTYPSNDRCCHECRPGNGMVSRCSRSQNTVCRPCGPGFYNDVVSSKPCKPCTWCNLRSGSERKQLCTATQDTVCRCRAGTQPLDSYKPGVDCAPCPPGHFSPGDNQACKPWTNCTLAGKHTLQPASNSSDAICEDRDPPATQPQETQGPPARPITVQPTEAWPRTSQGPSTRPVEVPGGRA
modifications: biotin (Sulfo-NHS-LC-biotin) for staining of yeast; not stated for BLI and SPR
Kd [1]: 7.9 nM
Kd [2]: 3.8 nM
Kd [3]: 2.2 nM
Kd [4]: 2 nM
Kd [5]: 6.9 nM
Kd [6]: 14.4 nM
Kd [7]: 3.8 nM
